According to a protein production outcome set (Wang et al. 2014):

Assay: label from the status in PepcDB records
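Note: failed if final PepcDB status was selected cloned or expressed and not failed if soluble or beyond.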

MKTYTLIATAPMGIEAIVAKEVRDLGYDCTVDNGKVVFEGDALAICRANLWLRTADRVKVQAAEFIAKTFDELFEKTKAIDWSAYLPEHASFPVTGKSVKSVLASVPDCQRIVKKAIAEKLKSEYQTQGEWLEETGPEYKIEVSLLKDKAVITLDSSGAGLHKRGYRTGQGEAPLKETLAAALILLTNWTPDRPFVDPFCGSGTIPIEAALIGQNIAPGFNRDFASERWEWIGKEVWDQARLEVEEKANYDQPLSISGYDLDHRMIEIAKANAEEAGLADFIEFKQMQVKDFRTKEEYGVIVGNPPYGERLGEKKAVEAMYKDMGKAFAELDTWSVYMLTSNERFEECYGKKATKKRKLFNGFIKTDYYQYWGKRPPKPNKEK
protein production: not failed

MGHHHHHHENLYFQSHMTDFVELMNSMSSTFNSDCATSTAEGGTLLNLNLAEDKTLKWRNLANNQFASKEKKHKDKEEEERKEARNQEEIEDIKALLADVVDAAAVKLEEEEAQNAEKVEPHTKCEIEEEGRKEMEYDQDVAKQDSEMEKKQNGKATSITVKMES
protein production: not failed

MAEICLITGTPGSGKTLKMVSMMANDEMFKPDENGIRRKVFTNIKGLKIPHTYIETDAKKLPKSTDEQLSAHDMYEWIKKPENIGSIVIVDEAQDVWPARSAGSKIPENVQWLNTHRHQGIDIFVLTQGPKLLDQNLRTLVRKHYHIASNKMGMRTLLEWKICADDPVKMASSAFSSIYTLDKKVYDLYESAEVHT
protein production: not failed

MLDLVAAFIALTTLLTYVNYRFIRLPPTIGVMATALVFSLIVQGLSELGYPILEVEMQEIIRRIDFSEVLMTWFLPALLFAGALHVDLSDLRSYKWPIGLLATAGVLIATFVIGGLAYYTFPLFGWQVDFIYCLLFGALISPTDPIAVLGILKSAGAPKPLATTIVGESLFNDGTAVVVFAIILGILQLGEAPTVSATAILFVQEAIGGVVFGAVLGYGVFVMMRGIDQYQVEVMLTLALVIGGAALAARLHVSAPIAMVVAGLIIGNHGRHYAMSDETRRYVDKFWELIDEILNALLFALIGLELLLLPFSWLHVAAAFALGGAVLVSRLLTVGPAILVLRRFRGANRQVPAGTIRILVWGGLRGGVSVALALSLPLGPERDLILSLTYIVVLVSILLQGLSIGPLVRRIYAGQPLEKSEGAH
protein production: failed

DQHRPATLEALLAGVSLLLPMLDAIPNAAIFIKDSAARYALANNTLVQRCGLKRLQPLLGKTSAEVFPAQFGPGYTEQDRRVLKEGLVLEDQLELHLYGSREPGWCLTHKRPLYNPAGEIIGLVGISVDLQSAADSHP
protein production: failed

AESLSGLSLKLVKKEPRQLELTWAGSRPRNPGGNLSYELHVLNQDEEWHQMVLEPRVLLTKLQPDTTYIVRVRTLTPLGPGPFSPDHEFRTSPP
protein production: not failed

MSTPTPDTDVEQVGLANTAFYEAMERGDFETLSSLWLTPADLGVDEEYHDPADAGVVSCVHPGWPVLSGRGEVLRSYALIMANTEYIQFFLTDVHVSVTGDTALVTCTENILSGGPPPDDSDELGPLVGQLVVATNVFRRTPDGWKLWSHHASPVLAETGAEEGDESPD
protein production: not failed

MRGIAIIFIVLGHSIYNSGEGFPVLLENLLRGGTALFVFISGYFFHRIFYKDFDYGKFMKNKVQNVLYPFLFVSIVGLFCLSLRWVFMEHQSLEQVLLSIFYTVRNGYILYPHWYIPFIMAVFLFSPVFLWFIRCSQQMRWTLFVLSCVVAILLHRPIGNVNFIHSVVYYLPFYLIGILYSQDEHIVTRYGSILSALAGIFLVVSLVEQSYIVQHVGNYHKAPFEYNGIDWQFIQKLSLCVLVLNFCDWLSQRSRLPWLIETAEMSFAIFFIHPLFDMLFNTTATIFRYRFPPDSWVTSILFSFGIFLFLMVSSMMTARLIKKRLGNRSRLFIGW
protein production: failed

MRTPCSQHRRDRPSAIGSQLPDADTLDTRQPPLQEIPISSFADKTFTAPAQIRNFCIIAHIDHGKSTLADRMLQLTGVVDERSMRAQYLDRMDIERERGITIKAQNVRLPWRVDKTDYVLHLIDTPGHVDFTYEVSRALEACEGAVLLVDAAQGIEAQTLANLYLALDRDLHIIPVLNKIDLPAADPDRYAAEMAHIIGCEPAEVLRVSGKTGEGVSDLLDEVVRQVPPPQGDAEAPTRAMIFDSVYDIYRGVVTYVRVVDGKISPRERIMMMSTGATHELLEVGIVSPEPKPCEGLGVGEVGYLITGVKDVRQSKVGDTVTSLSRARGAAAEALTGYREPKPMVYSGLYPVDGSDYPNLRDALDKLQLNDAALTYEPETSVALGFGFRCGFLGLLHMEITRERLEREFGLDLISTSPNVVYRVHKDDGTEIRVTNPSDWPEGKIRTVYEPVVKTTIIAPSEFIGTIMELCQSRRGELGGMDYLSPERVELRYTMPLGEIIFDFFDALKSRTRGYASLDYEEAGEQEAALVKVDILLQGEAVDAFSAIVHKDTAYAYGNKMTTKLKELIPRQQFEVPVQAAIGSKIIARENIRAIRKDVLSKCYGGDITRKRKLLEKQKEGKKRMKTIGRVEVPQEAFVAALSTDAAGDKGKK
protein production: failed

MDFNPIDLILHLDTYLAMLVSNYGVWIYAILFLVIFCETGLVVTPFLPGDSLLFIAGAICATGGMDPWLLGGLLMVAAITGDSTNYVIGRTLGKRLFSNPDSKVFRRDYLDRTHEFYERHGGKTVTLARFLPIVRTFAPFVAGMAKMHYPRFVMFSVVGTVAWVGGLVTLGYFFGNVPFIKKNLSLLVIGIILLSLLPMILGFIRHRLQASAAKQAKAQSD
protein production: failed

MREVSLRIDRYLVNTRITPNQLTYLMTVCGVLAAPALLVPGIWGAVLGVVAVQLYLLLDCVDGEIARWRKQYSLGGVYLDRVGAYLTDAAVLVGLGLRAADIWGTGRIDWLWAFLGTLAALGAILIKAETDLVGVARHQNGMPPVKEAASEIRSSGMALARRAAGALKFHRLILGIEATLLILVLAIVDQARGDLFFTRLGTAVLAGIALLQTLLHLVSILASSRLK
protein production: failed

HRPLNPAMVAFSNDPLLNDLALNSSYSLLFAVNNMKSEKSAEQFYGKMDNQKMLDLVRASSTKIDFDPTLLPTMNSNPATYQGKRKNLVILLQESLGAQFVGSLGGLPLTPNLDELMQEGWQFTQMYATGTRSVRGIEAVTTGFPPSPSRAVVKLSKSQTGFFTIADLLKEQGYHTQFIYGGEANFDNMKTFFFGNGFDQIVEEKNYTNPGFVGSWGVSDEDLYNKADEEFERLSKGDKPFFSLVFTSSNHSPYEYPEGKIEQYDSEHMTRNNAVKYSDYALGTFFDKAKKSSYWDDTIFIVIADHDARVFGANLVPVKHFHIPALIIGKDIQPRKDDRIANNIDMPPTLLSLIGVDAKTPMIGRDLTKPLAREDERAMMQYDKNFGYLTRDNLVVLSPGEKVSTMEYDFESQTMKPLEVDESVIDRAKANALFASKAYQNNWYSSKRTN
protein production: not failed

MSQRLILFSRYPEPGRSKTRLIPALGPEGAADLQRQLTEWTVFTAHCWQARSPQTEVLIATSGGTSEAWQQWLGAVEVQPQAEGDLGDRLHQAFQDSWQVGCDRTVIIGSDCPQIEPHHLDEAFAVLQQADVVIGPASDGGYWLIGLSQPQPQLFQNIDWGSDRVLVQTLEAAQVADLQVAQLESLSDLDRPEDLNLWQPQPQLSVIITTLNEAANLPQTLALIGDAPVETLVVDGGSQDATVAIAQAWGAKVIHSPAGRGRQFNQGAAAAHGNILLFLHGDTRLPPRFWEHVLQTLQPPQVVAGAFQLQIDSPDWRLRWIERGVRWRSHWLQQPYGDQALFLSRDRWRAIGGFSTGPLLEDYRFVRQLRRQGTIAIASAAVMTSARRWQRRGVLQTTLLNQLILLAHHCGVSDQQLARWYR
protein production: failed

MMKPSVSAAILAAGTSTRMNEMKQLAKIQGTYMLKYVIDQVSNHPFQHIFVIVGHQADIVMKMIQVEDKRVQWLVNDQYKQGQSTSFKLAMEQARQYGDAVMMFLADQPLIEKETVNIVLNEGITRVQEEPFIVRPMYEKKEGHPVYWGNIHALDCSAVNGDKGGKTLMEELERMLIPVHDQGVLVDVDTCEDYKKVNDLMKRKSPSTHLEHHHHHH
protein production: not failed

QKGWFPASHVKLLGPSSERATPAFHPVCQVIAMYDYAANNEDELSFSKGQLINVMNKDDPDWWQGEINGVTGLFPSNYVKMTTDS
protein production: not failed

MTRYGLRARVITLTLAPTLIIGLLLSGFFSFNRYQDLEKQVITTGNSIIEPLAIASESHLLAESREAVRRLISYAHRKNSKLVRSIAVFDEHHELFVTSNFHPNFEALMFPKDKPIPKLGNSEIYENSLILRVPILSEGHYLSELSNENQGTKAIGYIAVEMDLSSLRLQQYQEVFSAFLVLILGLGLASVFASRLMHDVTQPITHMKNVVDRIRRGHLDVRIEGKMHGELDQLKNGINAMAVSLSEYHVEMQHSIDQATSDLRETLEQLEIQNVELDIAKKRAQEAARVKSEFLANMSHELRTPLNGVIGFTRQMLKTQLSNSQTDYLQTIEKSANNLLNIINDILDFSKLEAGKLALENIPFDFRESLEEVINLQATSAHEKGLEITLKVDPKIPPGLVGDPLRIQQILTNLVGNSIKFTERGNIDVSVEMRSQAGDSVELQFMVRDTGIGISERQQAQLFQAFSQADASISRRYGGTGLGLVITQKLVSQMGGEISLTSRLHQGSTFWFTLRLNSTEMPMSDLIEVELLTGKQLLLVEPNMQAASVTQQILSQEGILVTYRSSLPENEEHYDYVLLNLAANQTYDEQSVAAWIEQAKRMAPSVIMGTPSTELALADQIMTEHQIQCLTKPLSRRKLLQSLINEHVEAPQAITAPVETEESERLPLTVLAVDDNPANLKLISALLKERVETVTACSNGQQAVNLATEKKYDLIFMDIQMPLMDGVTACQNIKELELNKDTPVIAVTAHAMAGERDRLLAAGMDDYLTKPIEEHVLQQVLVHWNPNTCTESIGKVAPSYVDEPESEAPATAENTQPDVIIDWQAALKQSANKEDLAKDMLRMLIDFIPEVEEVVDHALEQDDYSREELIHVIHKLHGSSSYCGVPRLKSLCATLEHALRSGASIEEIEPEMFELQDEMIKVTTTAKLYLEQ
protein production: failed

MDNVGCDKRISWPCHCSKSRTAPRRGSHLMARGRKRRFNPNIPGHIEQEALPKGIYWENGRWYMHEDHPDGGRQVKRTVAFRSARLSELHAIAESRLRGDVRGTLRYLFDRFHEASEFKELQHDTQKDYRRYADTLANYVRKDGSKLGGVQLEHITTPVVQRLLETFANGRPATRLQQALPPTPSKANHLYRYLRRTLAWGVRHGYCKENPAIGVLQAKEAKAFRMPTPDAFEAVLQFARERGALKPHTKGSFPSYLPPVMVLAYSARLRGIEVCSLTDAHRLEHGVHASRRKGSRDTLTTWDAHMTEAWEALLARRSEICNKPGRNFPIPMKPEERFFLIEQTGNPIVKSSLDSAWQRFIPAAIRDGVIKSEERFSLHGLKHRGVTDTEGNRGDKQDAAGHVSSSMTDRYDHELPVVKPPRRR
protein production: failed

MPDGWRKMGVLVFYDLPVVSPEQRLAAVRFHKFLLADGFERMHYSIYARYCGSMERAATYERRVEQALPAVGHVNLLKLTDRQMVGMRKWIRGNYRAPENAEFVPPAQYQLFLEHHHHHH
protein production: failed

MAYDDMGFPVSVSGPARRVVSLVPSLTEAIAHTRREALVGATDWCTHPAGLDVARVRGTKNPDRAAIAALRPDLVIANKEENRELDVRMLRAAGIPVWVTVIQTVPQALDSLTRLFTEALCWPLPDWLVEARRLWSHPLPPVRARVAIPVWRDPWMVVGSATFTGDLARRLGLANVFADHPERYPKVALADIDRDDVDLVVLPDEPYAFTPQDGPEAFRCAPTVLVSGRLLTWYGPSLLHAKEGLAALVQ
protein production: failed

LQVGKVYIFGSGHVARALVPILNYLSFYCVVVDDRPEFLTAQAFPQAEELRVIPLENLAAFIEITADDYGIVITRGHNFDFIVAKQLLETPAKYIGVMGSKHKIASQVRRLKEVGYTMTEIERIFMPIGLDIAAETPEELAISIAGELIQQRYQ
protein production: failed
